According to patent US20260022175A1:

What was measured:
Assay in all cases: SPR Biacore 8k+ 25C, antibody captured, FcγR analyte; mean
[1] = biological target: cynomolgus monkey FcγRIIIa(R) extracellular domain with His tag (cynomolgus monkey) (UniProt Q8SPW2)
[2] = biological target: cynomolgus monkey FcγRIIa1 extracellular domain with His tag (cynomolgus monkey)
[3] = biological target: cynomolgus monkey FcγRIIIa(S) extracellular domain with His tag (cynomolgus monkey) (UniProt Q8SPW2)
[4] = biological target: human FcγRIIa(R) extracellular domain with C-terminal His tag (human) (UniProt P12318)
[5] = biological target: human FcγRIIIa(F) extracellular domain with C-terminal His tag (human) (UniProt P08637)
[6] = biological target: human FcγRIIIa(V) extracellular domain with C-terminal His tag (human) (UniProt P08637)
[7] = biological target: human FcγRIIb extracellular domain with C-terminal His tag (human) (UniProt P31994)
[8] = biological target: cynomolgus monkey FcγRIIa3 extracellular domain with His tag (cynomolgus monkey)
[9] = biological target: human FcγRIa extracellular domain with C-terminal His tag (human) (UniProt P12314)
[10] = biological target: cynomolgus monkey FcγRIIb extracellular domain with His tag (cynomolgus monkey)
[11] = biological target: cynomolgus monkey FcγRIIa2 extracellular domain with His tag (cynomolgus monkey)
[12] = biological target: human FcγRIIa(H) extracellular domain with C-terminal His tag (human) (UniProt P12318)
[13] = biological target: cynomolgus monkey FcγRIa extracellular domain with His tag (cynomolgus monkey)
Chain of cynomolgus monkey FcγRIa extracellular domain with His tag (cynomolgus monkey) (P12314 other isoform, or with tags, fused parts or gaps): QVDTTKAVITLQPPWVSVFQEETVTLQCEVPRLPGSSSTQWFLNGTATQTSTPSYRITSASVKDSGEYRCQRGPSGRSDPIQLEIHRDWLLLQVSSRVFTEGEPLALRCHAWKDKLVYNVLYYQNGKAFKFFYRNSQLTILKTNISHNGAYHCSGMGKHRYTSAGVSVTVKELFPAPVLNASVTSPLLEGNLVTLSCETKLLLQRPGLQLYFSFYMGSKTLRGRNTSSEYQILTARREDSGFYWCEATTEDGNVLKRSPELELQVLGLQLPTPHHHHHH

Chain of cynomolgus monkey FcγRIIb extracellular domain with His tag (cynomolgus monkey) (chain, as listed by the source): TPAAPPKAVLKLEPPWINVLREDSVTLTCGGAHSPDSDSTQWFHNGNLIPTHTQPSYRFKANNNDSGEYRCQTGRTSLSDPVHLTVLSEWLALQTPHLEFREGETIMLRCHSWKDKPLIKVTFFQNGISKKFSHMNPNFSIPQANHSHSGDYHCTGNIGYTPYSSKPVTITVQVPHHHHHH
Chain of human FcγRIIIa(F) extracellular domain with C-terminal His tag (human) (P08637 other isoform, or with tags, fused parts or gaps): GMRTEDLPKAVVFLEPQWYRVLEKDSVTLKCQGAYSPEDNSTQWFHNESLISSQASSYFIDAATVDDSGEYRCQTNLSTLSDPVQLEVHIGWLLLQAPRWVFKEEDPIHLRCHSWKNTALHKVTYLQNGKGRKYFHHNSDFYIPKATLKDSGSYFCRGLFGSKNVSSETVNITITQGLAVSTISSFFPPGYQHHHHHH
Chain of cynomolgus monkey FcγRIIa2 extracellular domain with His tag (cynomolgus monkey) (chain, as listed by the source): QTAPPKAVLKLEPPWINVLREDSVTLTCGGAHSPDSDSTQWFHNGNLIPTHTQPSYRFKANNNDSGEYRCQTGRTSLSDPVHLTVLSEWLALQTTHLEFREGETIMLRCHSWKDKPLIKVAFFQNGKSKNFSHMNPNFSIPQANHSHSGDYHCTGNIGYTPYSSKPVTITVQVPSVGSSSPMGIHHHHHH
Chain of human FcγRIIa(R) extracellular domain with C-terminal His tag (human) (P12318 34-217 H167R): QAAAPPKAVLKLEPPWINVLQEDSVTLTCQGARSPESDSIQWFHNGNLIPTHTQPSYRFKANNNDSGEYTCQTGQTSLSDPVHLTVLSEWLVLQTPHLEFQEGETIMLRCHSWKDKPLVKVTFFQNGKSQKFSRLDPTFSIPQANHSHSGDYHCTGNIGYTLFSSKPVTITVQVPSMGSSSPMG
Chain of human FcγRIIa(H) extracellular domain with C-terminal His tag (human) (P12318 34-217): as the sequence (P12318 34-217 H167R) above, with R134H counted along it
Chain of human FcγRIIb extracellular domain with C-terminal His tag (human) (P31994 other isoform, or with tags, fused parts or gaps): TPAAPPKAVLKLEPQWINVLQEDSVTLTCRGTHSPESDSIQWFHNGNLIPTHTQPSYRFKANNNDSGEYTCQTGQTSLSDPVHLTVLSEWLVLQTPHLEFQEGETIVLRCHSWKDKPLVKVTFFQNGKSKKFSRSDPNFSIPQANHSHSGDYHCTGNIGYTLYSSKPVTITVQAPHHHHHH
Chain of human FcγRIIIa(V) extracellular domain with C-terminal His tag (human) (P08637 other isoform, or with tags, fused parts or gaps): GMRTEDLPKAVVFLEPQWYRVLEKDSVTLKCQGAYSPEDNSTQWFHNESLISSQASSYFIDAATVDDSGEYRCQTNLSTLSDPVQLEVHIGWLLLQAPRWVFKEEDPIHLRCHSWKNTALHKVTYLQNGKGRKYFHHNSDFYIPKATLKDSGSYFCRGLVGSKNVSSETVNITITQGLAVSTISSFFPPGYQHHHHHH
Chain of cynomolgus monkey FcγRIIa3 extracellular domain with His tag (cynomolgus monkey) (chain, as listed by the source): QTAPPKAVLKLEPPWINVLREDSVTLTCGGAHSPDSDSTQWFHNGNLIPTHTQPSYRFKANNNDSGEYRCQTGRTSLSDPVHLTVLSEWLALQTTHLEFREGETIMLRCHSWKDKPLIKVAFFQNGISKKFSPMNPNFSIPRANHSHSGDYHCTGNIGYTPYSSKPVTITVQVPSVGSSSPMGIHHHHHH
Chain of cynomolgus monkey FcγRIIIa(S) extracellular domain with His tag (cynomolgus monkey) (Q8SPW2 other isoform, or with tags, fused parts or gaps): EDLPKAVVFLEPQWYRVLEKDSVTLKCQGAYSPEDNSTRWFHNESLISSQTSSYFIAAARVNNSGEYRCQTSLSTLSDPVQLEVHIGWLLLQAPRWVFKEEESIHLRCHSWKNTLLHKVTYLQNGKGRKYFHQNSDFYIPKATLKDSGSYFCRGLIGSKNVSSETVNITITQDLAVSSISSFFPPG
Chain of cynomolgus monkey FcγRIIIa(R) extracellular domain with His tag (cynomolgus monkey) (Q8SPW2 other isoform, or with tags, fused parts or gaps): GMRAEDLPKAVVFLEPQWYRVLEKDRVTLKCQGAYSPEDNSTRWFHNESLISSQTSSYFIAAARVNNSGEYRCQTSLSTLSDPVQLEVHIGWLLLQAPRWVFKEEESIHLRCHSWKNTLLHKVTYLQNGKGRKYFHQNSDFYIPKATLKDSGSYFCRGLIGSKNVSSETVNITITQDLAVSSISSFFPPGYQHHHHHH
Chain of cynomolgus monkey FcγRIIa1 extracellular domain with His tag (cynomolgus monkey) (chain, as listed by the source): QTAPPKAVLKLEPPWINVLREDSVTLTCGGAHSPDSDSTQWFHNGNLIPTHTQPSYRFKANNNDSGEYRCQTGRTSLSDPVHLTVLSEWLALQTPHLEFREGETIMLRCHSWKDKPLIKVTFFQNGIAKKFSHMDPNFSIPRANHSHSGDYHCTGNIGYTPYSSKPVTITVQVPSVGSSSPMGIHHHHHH
Chain of human FcγRIa extracellular domain with C-terminal His tag (human) (P12314 other isoform, or with tags, fused parts or gaps): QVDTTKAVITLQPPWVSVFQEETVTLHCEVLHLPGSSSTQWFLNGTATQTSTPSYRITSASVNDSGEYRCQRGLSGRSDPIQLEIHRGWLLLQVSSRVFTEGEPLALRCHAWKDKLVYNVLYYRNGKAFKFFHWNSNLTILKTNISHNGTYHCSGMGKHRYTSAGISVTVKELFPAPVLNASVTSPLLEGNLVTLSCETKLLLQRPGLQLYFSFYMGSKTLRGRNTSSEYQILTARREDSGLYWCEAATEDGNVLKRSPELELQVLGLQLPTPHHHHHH

- Kd [1]: 579 nM
- Kd [2]: 6800 nM
- Kd [3]: 497 nM
- Kd [4]: 1880 nM
- Kd [5]: 9090 nM
- Kd [6]: 1020 nM
- Kd [7]: 16500 nM
- Kd [8]: 39800 nM
- Kd [9]: 0.0908 nM
- Kd [10]: 5670 nM
- Kd [11]: 7530 nM
- Kd [12]: 1250 nM
- Kd [13]: 0.0109 nM
Substance: Tremfya (Janssen Pharmaceutical K.K) (antibody)
